What all share (assay): IEDB peptide-MHC binding, purified MHC/competitive/radioactivity; ≥ and ≤ were set here for values at or beyond the usual limits of such assays
Common to all, as to details: source organism: Hepatitis B virus

Assay [1] has as its target HLA-A*68:01.
Assay [2] deals with HLA-A*02:03.
The target of assay [3] is HLA-A*02:06.
For assay [4], the target named is HLA-A*02:02.
Assay [5] concerns the target HLA-A*68:02.
The target of assay [6] is HLA-B*51:01.
The target of assay [7] is HLA-B*54:01.
Assay [8] has as its target HLA-A*31:01.
Assay [9] concerns the target HLA-A*33:01.
Assay [10] concerns the target HLA-A*01:01.
Assay [11] deals with HLA-A*30:02.
In assay [12] the target is HLA-A*29:02.
The target in assay [13] is HLA-B*35:01.
Assay [14] deals with HLA-B*53:01.
Assay [15] addresses HLA-A*24:02.
For assay [16], the target named is HLA-A*23:01.

The term IC50 denotes the midpoint of a concentration-inhibition curve. Turning to QAFTFSPTYK, in [1], the IC50 was determined as 7.1 nM.
Consider YMDDVVLGV, for which the IC50 in [2] turned out to be 11.5 nM; in assay [3] it was 90.6 nM; in assay [4], 90.6 nM; in [5], 422 nM.
As for YPALMPLYACI, the figures for the IC50 in [6] and in assay [7] were 119 nM and 111 nM, respectively.
Regarding STLPETTVVRR, the concentration for half-maximal inhibition (IC50) amounted to 190 nM in assay [8] and 187 nM in [9].
On to SAICSVVRR, for which the IC50 in assay [1] was determined as 22.9 nM.
On the same count and under the same terms, the figure for HTLWKAGILYK is 48.2 nM.
For ASFCGSPY, the values for the IC50 in assay [10], in assay [11] and in assay [12] were 51.4 nM, 4.3 nM and 86.9 nM, respectively.
With TPARVTGGVF, in [13], the concentration for half-maximal inhibition (IC50) is 71.6 nM.
Regarding FPHCLAFSYM, the IC50 in [14] is 128 nM; in assay [6] it was 68.9 nM; in [7], 214 nM.
Take LWFHISCLTF: the half-inhibitory concentration (IC50) in assay [15] came out at 6.5 nM; in [16], 7.7 nM.
As to LSLDVSAAFY, the values for the IC50 in assay [10] and in assay [12] were 333 nM and 44.2 nM, respectively.
In the case of WMMWYWGPSLY, the IC50 in [11] came out at 46.4 nM; in [12], 133 nM.
RFSWLSLLVPF: the figures for the IC50 in assay [15] and in [16] were 101 nM and 12.6 nM, respectively.
Regarding RWMCLRRFII, in assay [16], the half-maximal inhibitory concentration (IC50) came to 7.5 nM.

(Values after the Immune Epitope Database (IEDB).)
